One assay deals with hMPV B2 F GCN4. The assay is described as follows: ELISA.
Assay [1] addresses hMPV F protein of subgroup B1 (ELISA panel) (human metapneumovirus (subgroup B1)). Briefly: ELISA.
Assay [2] concerns the target hMPV F protein of subgroup A2 (ELISA panel) (human metapneumovirus (subgroup A2)). Briefly: ELISA. Background: ELISA stands for enzyme-linked immunosorbent assay.
Assay [3] addresses post-fusion trimeric hMPV B2 F (trypsin treated) (human metapneumovirus (subgroup B2)). Briefly: ELISA.
In assay [4] the target is monomeric hMPV B2 F protein, treated with trypsin (human metapneumovirus (subgroup B2)). Briefly: ELISA.
For assay [5], the target named is hMPV F protein of subgroup A1 (ELISA panel) (human metapneumovirus (subgroup A1)). The assay is described as follows: ELISA.
Assay [6] addresses recombinant hMPV B2 F protein (human metapneumovirus (subgroup B2)). Briefly: ELISA.
Assay [7] has as its target biotinylated monomeric hMPV B2 F protein (human metapneumovirus (subgroup B2), biotin (site not stated)). Briefly: BLI. In general terms: Biolayer interferometry detects binding as a change in optical thickness at a sensor tip.

In article PMC7598476 (2020) one finds EC50 and koff data, which are given here for 3 molecules.

A word on the EC50: it is the concentration that produces a half-maximal response. One may read the koff as the first-order rate constant of dissociation.

B1: MPV458 human monoclonal antibody (antibody, V domains shown)
VH: QGKLVESGGGVIQPGRSLRLSCAASGFDFSRYGLHWVRQAPGKGLEWVAVIVYAGSNKYYADSVKGRFTISKDNSKNTMHLQMSDLRTEDTAVYYCARDQAFDLWGQGTMVTVSS
VL: DIQMTQSPASLSASVGDRVTITCQASQGISRSVNWYQQKPGKAPKLLIFDASHLERGVPSRFSGSGYGTDFTFTISSLQPEDIATYYCQQYDNLRISFGQGTRLEIK
In the case of B1, the 50% effective concentration (EC50) in the assay with hMPV B2 F GCN4 was 0.2 µg/mL; in assay [1] it was 0.39 µg/mL; in assay [2], 0.39 µg/mL; in assay [3] it was 0.13 µg/mL; in assay [4] it was 0.027 µg/mL; in assay [5] it was 0.33 µg/mL. In addition, the EC50 in assay [6] came out at 0.12 µg/mL.

B2: MPV458 Fab (Fab, V domains shown)
VH: B1 VH
VL: B1 VL
For the molecule B2, the koff in assay [7] turned out to be 8.4e-05 s⁻¹.

B3: MPE8 monoclonal antibody (recombinant, human IgG1) (antibody, V domains shown)
VH: EVQLVESGGGLVKPGGSLRLSCAASGFTFSSYSMNWVRQAPGKGLEWVSSISSSSSYIYYADSVKGRFTISRDNAKNSLYLQMNSLRAEDTAVYYCARARATGYNSITPYFDIWGQGTLVTVSS
VL: QSVVTQTPSVSGAPGQRVTISCTGSSSNIGAGYDVHWYQQLPGTAPKLLIYDNNNRPSGVPDRFSASKSGTSASLAITGLQAEDEADYYCQSYDRSLSGVFGTGTKVTVL
As for B3, the EC50 came to 4.7 µg/mL with hMPV B2 F GCN4; 3.1 µg/mL in assay [1]; 4.3 µg/mL in assay [2]; 1.3 µg/mL in assay [3]; 0.63 µg/mL in assay [4]; 1.3 µg/mL in assay [5]. Moreover, in assay [6], the EC50 came out at 2 µg/mL.
